The target of data set [1] is T1, rVEGF164 (rat, UniProt P16612-2 27-190).
T1 sequence: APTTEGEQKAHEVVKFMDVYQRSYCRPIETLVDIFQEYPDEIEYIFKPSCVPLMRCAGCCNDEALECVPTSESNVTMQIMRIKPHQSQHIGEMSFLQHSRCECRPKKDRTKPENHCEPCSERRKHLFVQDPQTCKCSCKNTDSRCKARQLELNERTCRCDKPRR
In words: ELONA2.

The target in data set [2] is hVEGF165 (human, UniProt P15692-4 27-191). In words: ELONA1.
The target of data set [3] is T1, rVEGF164. In words: ELONA1.

The values that follow come from article PMC6547419.

For TGTGGGGGTGGACGGGCCGGGTAGA (ssDNA) [V7t1], the Kd is 4.3 ± 0.5 nM in data set [1], 0.77 ± 0.17 nM in data set [2] and 0.62 ± 0.14 nM in data set [3].

Broadly, the Kd is a measure of binding affinity in units of concentration. Lower therefore signals higher affinity.
